Assay results reported in the supplement of paper PMC9170038.

Test system: MS2 coat protein
Test: apparent KD of MS2 coat protein; higher = weaker reporter binding
Conditions: Eterna round: R107
Summary of the method: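 Designed RNA switches, transcribed on-chip from Illumina sequencing clusters, were titrated with SNAP-549-labelled MS2 coat protein from 0.7 or 1.5 nM to 3 µM in twofold steps. The solution was 100 mM Tris-HCl pH 7.5, 80 mM KCl, 4 mM MgCl2, with constant ligand or without it. Apparent KD is the median over each design's normalised cluster binding-curve fits.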

[1] = input ligand: theophylline 20 uM
[2] = input ligand: theophylline 2 mM
[3] = input ligand: tryptophan 2.4 mM

Sequence | apparent KD of MS2 coat protein (input ligand: arginine 13.2 mM) | apparent KD of MS2 coat protein (input ligand: none) | apparent KD of MS2 coat protein [1] | apparent KD of MS2 coat protein [2] | apparent KD of MS2 coat protein [3]
GCACAAGAUGGAAGGAGCGCUGGUAAAGGUCACAUGAGGAUCACCCAUGUGCUCCUUGCCGAGCAGGUAGGUCGCCAUCUUGUGC [SSAB NP+V+V2 #3] | 14.1 nM | 11.7 nM | 16.4 nM | 13.3 nM | 11.7 nM
UUUUUCGUAGGUUAAAGUUUAGAAACUGAAGGAGCGUGGUAAUACACAGGUAGGUCGCAGAUUUUACAUGAGGAUCACCCAUGUU [JR_ExcArginiA_Sub012] | 26.9 nM | 24.5 nM | 20.7 nM | 26.2 nM | 21.1 nM
AAUGCUGCCAAGGAUUCCUCAUGAGCAGAUACCAGCUAGGAAACUAGCCCUUGGCAGCUGCAACAUGAGGAUCACCCAUGUAAUA [(T)'-(M)'-(T1)-(T2)-(M1)-(M2)_Design7] | 31 nM | – | 94.2 nM | – | 35.7 nM
UGUCCUCAUGCGGCCGCCACUGUCGGCCGCCACUAAACCUGAGGAUCACCCGGGUAGGACCGGGACAGGACCGGGCAUGGGUGCU [#DoubleAptamer 4 #AlternativeMS2] | 47.4 nM | 315 nM | 486 nM | 686 nM | 111 nM
UGUCGGCGAAAGUUGGCGUGUCUUGCUGGUCGAGGACCGGUACGGCCGCCACUCGAUCCUUCGCACAUGAGGAUCACCCAUGUUG [SS Tryp A #24] | 25.8 nM | – | 49.1 nM | 34.8 nM | –
GUUUAGAGCUCGGCCGCCACUCAAACAUGAGGAUCACCCAUGUAAAACAUGAGGAUCACCCAUGUGAGGACCGGGAGAAAUAAGA [Exclusion Tryptophan B GF7] | 242 nM | 337 nM | 370 nM | 435 nM | 420 nM
AAAAGUAGGUCCAAUAAAACUACAUGUGAAGGAGCGCCCGAAAGGGCAGGUAGGUCGCACAUGAGGAUCACCCAUGUCCUACAAA [ArgEX 7 #OpenEnded] | 50.1 nM | 86.1 nM | 103 nM | 86.1 nM | 71.8 nM
ACAUGAGGAUCACCCAUGUGGCGUCUUGAUACCAGACGAGAAGUAGUCCCUUGGCAGCAAAUACGUGAGGAUCACACAUGUGCGA [cccmullin3] | 24.4 nM | – | 30.9 nM | – | 29 nM
CAAAUAAGAACAAACAAAUAACGGUUUUCGCGAGGACCGGUACGGCCGCCACUCGUGUGAAAUAACACAUGAGGAUCACCCAUGU [3'end-1] | 31.8 nM | – | 44.6 nM | 47.9 nM | –
AAAAUCCUACCUGAGGAUCACCCAGGUGAAGGAGCGCCCGAAAGGGCAGGUAGGUCGCACCUGAGGAUCACCCUGGUAAACCUAA [ArgEX 22 #DoubleMS2 #OpenEnded] | 30.9 nM | 44 nM | 47.6 nM | 56.8 nM | 40.6 nM
UAUAUAUAAACAUGAGGAUCACCCAUGUAACGAGGACCGGUACGGCCGCCACUCGGCCGGCAAGGGAGAGGACGGGAAACCGUCG [ETA NP+V+V2 #27] | 12.5 nM | 13.4 nM | 19.3 nM | 15.9 nM | 17.1 nM
AUAAGUAAUGUUUCGUGUAUUAUUACAGAUACCAGACUAUACGUUGUCCCUUGGCAGCUGGAUUACAUGAGGAUCACCCAUGUUG [JR_ExcTheophyA_Sub002] | 16 nM | – | 19.3 nM | – | 17.1 nM
GCUAGGUCAUCGGCCGCCACUAACGACGGUUCGAACAUGAGGAUCACCCAUGUGCCACAUGCGCAUAGGACCGGGAUGACCUAGC [SSTB NP+V+V2 #6] | 35.7 nM | 19.5 nM | 24.3 nM | 21.2 nM | 11.7 nM
AUUCAUGAAAACAUGACAUGAGGAUCACUCCGAGGACCGGUACGGCCGCCACUCGCGAGGAGGCACAUGAGGAUCACCCAUGUUA [SS Tryp A #2] | 36 nM | – | 119 nM | 143 nM | –
ACGACGCAUAGUGAUACCAGUAGAACAUGAGGAUCACCCAUGUCUGUUAUGUACAAAUACUGCCCUUGGCAGCACUAUGCGUCAG [SSTheo B #5] | 9.85 nM | – | 12.1 nM | – | 11.6 nM
AUACAUGAGGAUCACCCAUGUGAUGGCCGGCGAGGACCGGUACGGCCGCCACUCGUGAUCCGUCCUGAAAGCAAAGCUCCCAGCA [Lalazare] | 25.1 nM | – | 244 nM | 178 nM | –
